Where a chain is given by its changes, count along the chain named.
B1: NRC3_random_hg19_307_o1 (dsDNA)
DNA 1: GCATGTTAGAGCTCATGGAGAAGTGTCCTATGTGATGCGATTGACAGCGTAGAATGAAGG
DNA 2: CCTTCATTCTACGCTGTCAATCGCATCACATAGGACACTTCTCCATGAGCTCTAACATGC
B2: NRC3_wobSeed38_DR1_T16A_o1 (dsDNA)
DNA 1: GCCCTGCTAGGTCAAAGGTCAGCTAAAGCAGCTCGCGCGATTGACAGCGTAGAATGAAGG
DNA 2: CCTTCATTCTACGCTGTCAATCGCGCGAGCTGCTTTAGCTGACCTTTGACCTAGCAGGGC
B3: NRC3_wobSeed121_DR5_G18A_o1 (dsDNA)
DNA 1: GCCAAACTAGGTCACCGAAAGGTCAAAGTCCGCATGGCGATTGACAGCGTAGAATGAAGG
DNA 2: CCTTCATTCTACGCTGTCAATCGCCATGCGGACTTTGACCTTTCGGTGACCTAGTTTGGC
B4: NRC3_wobSeed41_DR1_T13C_o1 (dsDNA)
DNA 1: GCATATGTAGGTCAAGGGTCATTCAGGTTGGTTCGCGCGATTGACAGCGTAGAATGAAGG
DNA 2: CCTTCATTCTACGCTGTCAATCGCGCGAACCAACCTGAATGACCCTTGACCTACATATGC
B5: NRC3_wobSeed41_DR1_G16A_o1 (dsDNA)
DNA 1: B4 DNA 1 with C13T, G16A
DNA 2: B4 DNA 2 with C45T, G48A
B6: NRC3_wobSeed89_DR3_T13C_o1 (dsDNA)
DNA 1: GCCTATGTAGGTCAAGGGGGTCATTCAGTTTGAAAGGCGATTGACAGCGTAGAATGAAGG
DNA 2: CCTTCATTCTACGCTGTCAATCGCCTTTCAAACTGAATGACCCCCTTGACCTACATAGGC
B7: NRC3_wobSeed39_DR1_A19T_o1 (dsDNA)
DNA 1: GCCGAACTAGGTCAAAGGTCAGTGAAAGGCGACGTAGCGATTGACAGCGTAGAATGAAGG
DNA 2: CCTTCATTCTACGCTGTCAATCGCTACGTCGCCTTTCACTGACCTTTGACCTAGTTCGGC
B8: NRC3_wobSeed26_DR1_T9C_o1 (dsDNA)
DNA 1: GCTCTAGTCGGTCAAAGGTCACACACTCGAAATGCGGCGATTGACAGCGTAGAATGAAGG
DNA 2: CCTTCATTCTACGCTGTCAATCGCCGCATTTCGAGTGTGTGACCTTTGACCGACTAGAGC
B9: NRC3_wobSeed49_DR2_C27T_o1 (dsDNA)
DNA 1: GCCAAACTAGGTCAAGAGGTCAAAGTTCGCTTCCCGGCGATTGACAGCGTAGAATGAAGG
DNA 2: CCTTCATTCTACGCTGTCAATCGCCGGGAAGCGAACTTTGACCTCTTGACCTAGTTTGGC

Each binder was assayed against LXRb:RXRa (Homo sapiens, UniProt P55055;P19793 full;full) (assay: no ligand; PBM; 270 nM : 90 nM RXRa; PBS pH 7.4, 2% milk, 0.02% Triton X-100, 1 mM DTT, BSA, 0.4 mg/ml salmon testes DNA). Conditions: tags: His kept;His cleaved; copies: 1;1; label: surface-attached array probe.
Method in brief: (§1)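 Probes were double-stranded and carried 34-nt variable regions with direct-repeat seeds, single-nucleotide variants, half-site ablations and random human genomic background sequences, printed on custom Agilent 4×180K protein-binding microarrays. Arrays were incubated 1 h with ligand-free nuclear receptor dimers in PBS pH 7.4, 2% milk, 0.02% Triton X-100, 1 mM DTT, 0.2 mg/mL BSA and 0.4 mg/ml salmon testes DNA. Antibodies against each partner (one per run) detected binding, and scanned fluorescence was regression-normalized. Binding z-scores use the random background probes as reference.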

Sequence of LXRb:RXRa (P55055 whole entry, chain 1 of 2): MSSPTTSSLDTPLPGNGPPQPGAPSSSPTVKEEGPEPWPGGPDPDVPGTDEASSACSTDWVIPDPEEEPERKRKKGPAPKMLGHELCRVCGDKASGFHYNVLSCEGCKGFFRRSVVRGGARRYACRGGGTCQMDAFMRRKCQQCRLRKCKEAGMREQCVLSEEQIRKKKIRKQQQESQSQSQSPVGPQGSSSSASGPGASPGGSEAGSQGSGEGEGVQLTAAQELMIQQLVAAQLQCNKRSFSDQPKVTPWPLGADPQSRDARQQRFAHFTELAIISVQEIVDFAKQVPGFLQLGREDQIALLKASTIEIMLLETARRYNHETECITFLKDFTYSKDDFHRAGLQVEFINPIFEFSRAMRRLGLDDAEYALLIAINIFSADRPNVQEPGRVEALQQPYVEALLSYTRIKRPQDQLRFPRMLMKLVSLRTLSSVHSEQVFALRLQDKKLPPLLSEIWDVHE
Sequence of LXRb:RXRa (P19793 whole entry, chain 2 of 2): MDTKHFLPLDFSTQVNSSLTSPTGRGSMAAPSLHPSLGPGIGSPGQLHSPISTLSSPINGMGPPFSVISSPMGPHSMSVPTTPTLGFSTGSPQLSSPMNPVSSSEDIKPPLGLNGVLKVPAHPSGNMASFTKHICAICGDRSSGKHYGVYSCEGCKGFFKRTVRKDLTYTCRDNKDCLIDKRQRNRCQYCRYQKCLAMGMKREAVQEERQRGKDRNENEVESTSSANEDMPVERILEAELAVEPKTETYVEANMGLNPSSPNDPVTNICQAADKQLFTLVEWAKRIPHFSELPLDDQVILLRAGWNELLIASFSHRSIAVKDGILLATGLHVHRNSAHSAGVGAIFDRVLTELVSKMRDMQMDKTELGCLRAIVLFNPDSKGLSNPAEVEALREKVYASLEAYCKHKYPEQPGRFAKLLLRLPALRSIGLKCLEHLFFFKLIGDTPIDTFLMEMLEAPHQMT

Binder | binding signal
B1 | -0.8 PBM z-score against 500 random probes
B2 | 5.81 PBM z-score against 500 random probes
B3 | 6.47 PBM z-score against 500 random probes
B4 | 6.03 PBM z-score against 500 random probes
B5 | 5.91 PBM z-score against 500 random probes
B6 | 6.92 PBM z-score against 500 random probes

The binders below were run against RARg:RXRa (Homo sapiens, UniProt P13631;P19793 full;full) in the same assay as above. Conditions: tags: His kept;His cleaved; copies: 1;1; label: surface-attached array probe.
Method in brief: as §1

Binder | binding signal
B7 | 8.09 PBM z-score against 500 random probes
B2 | 8.54 PBM z-score against 500 random probes
B8 | 8.36 PBM z-score against 500 random probes

Each binder was assayed against FXR:RXRa (Homo sapiens, UniProt Q96RI1;P19793 full;full) in the same assay as above. Conditions: tags: His kept;His cleaved; copies: 1;1; label: surface-attached array probe.
Method in brief: as §1

Binder | binding signal
B9 | 7.82 PBM z-score against 500 random probes

These binders were tested against RARb:RXRa (Homo sapiens, UniProt P10826;P19793 full;full) in the same assay as above. Conditions: tags: His kept;His cleaved; copies: 1;1; label: surface-attached array probe.
Method in brief: as §1

Binder | binding signal
B7 | 5.46 PBM z-score against 500 random probes
B2 | 5.62 PBM z-score against 500 random probes
B3 | 5.67 PBM z-score against 500 random probes

What follows are binders tested against PXR:RXRa (Homo sapiens, UniProt O75469;P19793 full;full) in the same assay as above. Conditions: tags: His kept;His cleaved; copies: 1;1; label: surface-attached array probe.
Method in brief: as §1

Sequence of PXR:RXRa (O75469 whole entry, chain 1 of 2): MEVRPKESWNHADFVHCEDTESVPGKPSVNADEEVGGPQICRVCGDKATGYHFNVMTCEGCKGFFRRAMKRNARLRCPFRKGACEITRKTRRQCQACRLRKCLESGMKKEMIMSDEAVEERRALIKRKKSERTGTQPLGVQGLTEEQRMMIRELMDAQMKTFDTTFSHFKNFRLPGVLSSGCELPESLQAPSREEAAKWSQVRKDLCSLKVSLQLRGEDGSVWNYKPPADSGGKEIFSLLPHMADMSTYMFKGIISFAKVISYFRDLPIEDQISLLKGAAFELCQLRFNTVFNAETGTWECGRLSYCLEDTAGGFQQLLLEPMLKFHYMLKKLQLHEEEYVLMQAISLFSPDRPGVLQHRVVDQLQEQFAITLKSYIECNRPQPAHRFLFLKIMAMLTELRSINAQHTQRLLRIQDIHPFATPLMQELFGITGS
Sequence of PXR:RXRa (P19793 whole entry, chain 2 of 2): as the sequence (P19793 whole entry, chain 2 of 2) above

Binder | binding signal
B7 | 6.52 PBM z-score against 500 random probes
B9 | 6.88 PBM z-score against 500 random probes
B2 | 6.86 PBM z-score against 500 random probes
B3 | 6.93 PBM z-score against 500 random probes
B4 | 6.6 PBM z-score against 500 random probes
B5 | 6.71 PBM z-score against 500 random probes
B6 | 6.79 PBM z-score against 500 random probes

Each binder was assayed against RARa:RXRa (Homo sapiens, UniProt P10276;P19793 full;full) in the same assay as above. Conditions: tags: His kept;His cleaved; copies: 1;1; label: surface-attached array probe.
Method in brief: as §1

Sequence of RARa:RXRa (P10276 whole entry, chain 1 of 2): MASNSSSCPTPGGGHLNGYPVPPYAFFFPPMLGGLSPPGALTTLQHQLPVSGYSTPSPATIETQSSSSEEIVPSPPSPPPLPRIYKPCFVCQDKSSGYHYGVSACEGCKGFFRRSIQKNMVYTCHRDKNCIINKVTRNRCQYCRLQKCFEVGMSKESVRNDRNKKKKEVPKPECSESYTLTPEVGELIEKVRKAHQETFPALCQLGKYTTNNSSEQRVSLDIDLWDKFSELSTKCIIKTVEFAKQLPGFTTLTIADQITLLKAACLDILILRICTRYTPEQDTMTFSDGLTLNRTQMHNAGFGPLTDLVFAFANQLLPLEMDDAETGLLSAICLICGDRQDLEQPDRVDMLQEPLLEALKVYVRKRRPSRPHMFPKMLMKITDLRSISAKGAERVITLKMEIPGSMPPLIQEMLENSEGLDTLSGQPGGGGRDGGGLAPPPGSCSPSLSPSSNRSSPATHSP
Sequence of RARa:RXRa (P19793 whole entry, chain 2 of 2): as the sequence (P19793 whole entry, chain 2 of 2) above

Binder | binding signal
B1 | -0.77 PBM z-score against 500 random probes
B7 | 8.51 PBM z-score against 500 random probes
B9 | 8.47 PBM z-score against 500 random probes
B2 | 8.86 PBM z-score against 500 random probes
B3 | 8.55 PBM z-score against 500 random probes
B8 | 8.22 PBM z-score against 500 random probes
B4 | 7.96 PBM z-score against 500 random probes
B5 | 8.42 PBM z-score against 500 random probes
B6 | 7.29 PBM z-score against 500 random probes

The binders below were run against VDR:RXRa (Homo sapiens, UniProt P11473;P19793 full;full) in the same assay as above. Conditions: tags: His kept;His cleaved; copies: 1;1; label: surface-attached array probe.
Method in brief: as §1

Binder | binding signal
B9 | 6.55 PBM z-score against 500 random probes
B4 | 6.57 PBM z-score against 500 random probes
B5 | 6.82 PBM z-score against 500 random probes
B6 | 8.32 PBM z-score against 500 random probes

Each binder was assayed against PPARa:RXRa (Homo sapiens, UniProt Q07869;P19793 full;full) in the same assay as above. Conditions: tags: GST kept;His cleaved; copies: 1;1; label: surface-attached array probe.
Method in brief: as §1

Sequence of PPARa:RXRa (Q07869 whole entry, chain 1 of 2): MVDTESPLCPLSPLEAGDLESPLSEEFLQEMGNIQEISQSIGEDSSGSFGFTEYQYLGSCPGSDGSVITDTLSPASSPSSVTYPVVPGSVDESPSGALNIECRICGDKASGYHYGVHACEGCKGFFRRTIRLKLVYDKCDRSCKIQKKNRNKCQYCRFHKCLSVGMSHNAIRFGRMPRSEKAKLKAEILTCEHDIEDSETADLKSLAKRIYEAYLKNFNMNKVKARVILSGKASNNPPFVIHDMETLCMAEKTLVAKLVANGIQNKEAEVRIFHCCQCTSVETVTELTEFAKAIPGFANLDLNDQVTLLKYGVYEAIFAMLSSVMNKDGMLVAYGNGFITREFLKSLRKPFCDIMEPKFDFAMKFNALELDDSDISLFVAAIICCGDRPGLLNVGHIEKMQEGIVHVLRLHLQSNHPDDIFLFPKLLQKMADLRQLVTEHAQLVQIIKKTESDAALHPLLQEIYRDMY
Sequence of PPARa:RXRa (P19793 whole entry, chain 2 of 2): as the sequence (P19793 whole entry, chain 2 of 2) above

Binder | binding signal
B7 | 7.58 PBM z-score against 500 random probes
B9 | 6.92 PBM z-score against 500 random probes
B2 | 6.82 PBM z-score against 500 random probes
B3 | 6.77 PBM z-score against 500 random probes
B8 | 6.91 PBM z-score against 500 random probes
B4 | 7.55 PBM z-score against 500 random probes
B5 | 7.09 PBM z-score against 500 random probes
B6 | 6.84 PBM z-score against 500 random probes

What follows are binders tested against LXRa:RXRa (Homo sapiens, UniProt Q13133;P19793 full;full) in the same assay as above. Conditions: tags: His kept;His cleaved; copies: 1;1; label: surface-attached array probe.
Method in brief: as §1

Binder | binding signal
B3 | 6.91 PBM z-score against 500 random probes
B8 | 6.67 PBM z-score against 500 random probes

The binders below were run against RXRa (Homo sapiens, UniProt P19793) (assay: no ligand; PBM; 180 nM; PBS pH 7.4, 2% milk, 0.02% Triton X-100, 1 mM DTT, BSA, 0.4 mg/ml salmon testes DNA). Conditions: tags: His cleaved; chain copies: 2; label: surface-attached array probe.

Binder | binding signal
B7 | 9.27 PBM z-score against 500 random probes
B2 | 10 PBM z-score against 500 random probes
B8 | 8.95 PBM z-score against 500 random probes
B4 | 9.04 PBM z-score against 500 random probes
B5 | 9.21 PBM z-score against 500 random probes

The binders below were run against PPARg:RXRa (Homo sapiens, UniProt P37231;P19793 full;full) (assay: no ligand; PBM; 180 nM : 90 nM RXRa; PBS pH 7.4, 2% milk, 0.02% Triton X-100, 1 mM DTT, BSA, 0.4 mg/ml salmon testes DNA). Conditions: tags: His kept;His cleaved; copies: 1;1; label: surface-attached array probe.
Sequence of PPARg:RXRa (P37231 29-505, chain 1 of 2): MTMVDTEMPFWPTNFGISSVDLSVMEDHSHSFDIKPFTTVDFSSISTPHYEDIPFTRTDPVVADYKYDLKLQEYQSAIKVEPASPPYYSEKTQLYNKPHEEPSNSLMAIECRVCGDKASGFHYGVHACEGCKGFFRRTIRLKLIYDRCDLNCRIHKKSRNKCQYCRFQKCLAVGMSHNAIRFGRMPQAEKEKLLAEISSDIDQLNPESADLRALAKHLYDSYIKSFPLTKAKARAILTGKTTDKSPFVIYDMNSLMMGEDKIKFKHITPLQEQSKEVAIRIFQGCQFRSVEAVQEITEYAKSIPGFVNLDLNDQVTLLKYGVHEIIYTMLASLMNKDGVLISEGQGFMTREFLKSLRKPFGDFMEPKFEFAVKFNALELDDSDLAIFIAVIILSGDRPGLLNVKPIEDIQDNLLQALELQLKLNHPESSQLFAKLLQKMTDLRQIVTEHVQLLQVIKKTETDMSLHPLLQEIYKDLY
Sequence of PPARg:RXRa (P19793 whole entry, chain 2 of 2): as the sequence (P19793 whole entry, chain 2 of 2) above

Binder | binding signal
B1 | 0.17 PBM z-score against 500 random probes
B7 | 14 PBM z-score against 500 random probes
B9 | 11 PBM z-score against 500 random probes
B2 | 12.7 PBM z-score against 500 random probes
B3 | 10.5 PBM z-score against 500 random probes
B8 | 12.4 PBM z-score against 500 random probes
B4 | 13.1 PBM z-score against 500 random probes
B5 | 13.4 PBM z-score against 500 random probes
B6 | 11.1 PBM z-score against 500 random probes

Reference: PMC6555819, “Comprehensive study of nuclear receptor DNA binding provides a revised framework for understanding receptor specificity”
